# Values of other authors as cited in publication PMC2645924.
# How the values were obtained:
# Cys165 = Cys165 (UniProt position 166, HPGEVCPAKWK); assay: chemical modification; conditions: Reduced mutant proteins
# Cys46 = Cys46 (UniProt position 47, DFTFVCPTELG); assay: chemical modification; conditions: Reduced mutant proteins
# Cys32 = Cys32 (UniProt position 33, FWAEWCGPCKM)
substance,measurement,setting,value
AhpC C46S mutant (only C165 remains) (Salmonella typhimurium; C46S),pKa,Cys165,8.7
AhpC C165S mutant (only C46 remains) (Salmonella typhimurium; C165S),pKa,Cys46,less than 5
Thioredoxin (Escherichia coli),pKa,Cys32,6.7 – 7.1
